T1: CADM1, endogenous in H929 multiple myeloma cells (human, UniProt Q9BY67 45-442)
T1 construct: Native protein on H929 cells (flow cytometry, siRNA knockdown) and in H929 lysates (IP/MS); RPMI-8226 cells were used for sorting with HW-97; also called IGSF4A
T1 sequence: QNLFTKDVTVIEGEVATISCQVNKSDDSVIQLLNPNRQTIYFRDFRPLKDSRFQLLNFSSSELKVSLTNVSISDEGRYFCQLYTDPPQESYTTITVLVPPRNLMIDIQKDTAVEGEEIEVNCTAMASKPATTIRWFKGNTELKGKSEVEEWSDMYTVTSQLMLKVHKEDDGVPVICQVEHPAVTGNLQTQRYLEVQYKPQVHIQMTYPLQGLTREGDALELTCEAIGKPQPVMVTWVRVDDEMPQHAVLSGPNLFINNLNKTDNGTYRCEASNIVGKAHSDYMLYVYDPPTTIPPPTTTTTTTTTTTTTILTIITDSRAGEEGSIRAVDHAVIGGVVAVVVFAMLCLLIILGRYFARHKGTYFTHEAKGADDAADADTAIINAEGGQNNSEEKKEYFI

B1: HW-97 chimeric rabbit-human IgG1 LA/LA/PG (antibody, V domains shown)
VH: QKQLVESGGRLVTPGTPLTLTCTVTGIDLSSHGMSWVRQAPGKGLEWIGVIYPSGSTWYASWARGRFTISKTSTTVDLKMTSLTTEDTATHFCARGDVGGADNNIWGPGTLVTVSS
VL: SFVLTQPASVQVDLGQTVSLTCTAETLSRSYASWYQQKPGQAPVLLIYRDTSRPSGVPDRFSGSSSGNTATLTISGAQAGDEADYYCATSDGSGSSYQYVFGGGTQLTVTG
notes: Fc-silenced (L234A/L235A/P329G) IgG1, lambda; Alexa Fluor 647-labeled in single-step flow cytometry; Prototype of cluster C-97
B2: HW-113 chimeric rabbit-human IgG1 LA/LA/PG (antibody, V domains shown)
VH: QKQLVESGGGLVQPGGSLTLTCTVSGFSLNKYYMGWFRQAPGKGLEWIGVISRSGDTYYSSWAKGRFTISKASTTVDLRITSPTTEDTATYFCARDASSPGFHGDRLDLWGQGTLVTVSS
VL: SFVLTQPASVQVNLGQTVSLTCTADTLSRSYASWYQQKPGQAPVLLIYRDTSRPSGVPDRFSGSSSGNTATLTISGAQAGDEADYYCATSDGIGSNYLWVFGGGTQLTVTG
notes: Fc-silenced (L234A/L235A/P329G) IgG1, lambda; Alexa Fluor 647-labeled in single-step flow cytometry
B3: HW-101 chimeric rabbit-human IgG1 LA/LA/PG (antibody, V domains shown)
VH: QEQLVESGGRLVTPGTPLTLTCKASGFSLGKYDMSWVRQAPGKGLEWIGTIYAGSGSTWYASWAKGRFTISKTSTTVDLKMTSLTTEDTATYFCARDFLGVNSIWGPGTLVTISS
VL: SFVLTQPASVQVNLGQTVSLTCTADTLSRSYASWYQQKPDQAPVLLIHRDTSRPSGVPDRFSGSNSGNTATLTISGAQAGDEADYYCATSDGSGSNFHFVFGGGTQLTVTG
notes: Fc-silenced (L234A/L235A/P329G) IgG1, lambda; Alexa Fluor 647-labeled in single-step flow cytometry; Cluster C-97
B4: TH9-0022 (antibody, human IgG1, kappa, L234A L235A, V domains shown)
VH: QSLEESGGRLVTPGTPLTLTCTVSGFSLSSYAMNWVRQAPGKGLEWIGIINSYGSTYYASWAKGRFTISKTSTTVDLKITSPTTEDTATYFCARVTYDSYGYGYAPYGMDLWGPGTLVTVSS
VL: LVMTQTPSSTSNAVGGTVTIKCQASQSIGNVLAWYQQKPGQPPKLLIYAASTLASGVPSRVGGSRSGTEYTLTISGVQREDAATYYCLGSDSDSDIAFGGGTELEILR
notes: also called TH9-022; negative control
B5: TH9-0022 (antibody, human IgG1, kappa, L234A L235A, V domains shown)
VH: QSLEESGGRLVTPGTPLTLTCTVSGFSLSSYAMNWVRQAPGKGLEWIGIINSYGSTYYASWAKGRFTISKTSTTVDLKITSPTTEDTATYFCARVTYDSYGYGYAPYGMDLWGPGTLVTVSS
VL: LVMTQTPSSTSNAVGGTVTIKCQASQSIGNVLAWYQQKPGQPPKLLIYAASTLASGVPSRVGGSRSGTEYTLTISGVQREDAATYYCLGSDSDSDIAFGGGTELEILR
notes: also called TH9-022; negative control IgG1

How the values were obtained:
[1] = molecular target: T1, CADM1, endogenous in H929 multiple …; experiment: flow cytometry, H929 + ICAM1 siRNA; None 1.06
[2] = molecular target: T1, CADM1, endogenous in H929 multiple …; experiment: flow cytometry, H929 + PTPRG siRNA; None 490
[3] = molecular target: T1, CADM1, endogenous in H929 multiple …; experiment: flow cytometry, H929 + ICAM1 siRNA; None 455
[4] = molecular target: T1, CADM1, endogenous in H929 multiple …; experiment: flow cytometry, H929 + PTPRG siRNA; None 2.13
[5] = molecular target: T2, ICAM1, endogenous in H929 multiple myeloma cells (human, UniProt P05362 28-532); experiment: flow cytometry, H929 + vehicle; None 2.74
T2 construct: Native protein on H929 cells (flow cytometry, siRNA knockdown) and in H929 lysates (IP/MS); also called CD54
T2 sequence (P05362 28-532 limits assumed): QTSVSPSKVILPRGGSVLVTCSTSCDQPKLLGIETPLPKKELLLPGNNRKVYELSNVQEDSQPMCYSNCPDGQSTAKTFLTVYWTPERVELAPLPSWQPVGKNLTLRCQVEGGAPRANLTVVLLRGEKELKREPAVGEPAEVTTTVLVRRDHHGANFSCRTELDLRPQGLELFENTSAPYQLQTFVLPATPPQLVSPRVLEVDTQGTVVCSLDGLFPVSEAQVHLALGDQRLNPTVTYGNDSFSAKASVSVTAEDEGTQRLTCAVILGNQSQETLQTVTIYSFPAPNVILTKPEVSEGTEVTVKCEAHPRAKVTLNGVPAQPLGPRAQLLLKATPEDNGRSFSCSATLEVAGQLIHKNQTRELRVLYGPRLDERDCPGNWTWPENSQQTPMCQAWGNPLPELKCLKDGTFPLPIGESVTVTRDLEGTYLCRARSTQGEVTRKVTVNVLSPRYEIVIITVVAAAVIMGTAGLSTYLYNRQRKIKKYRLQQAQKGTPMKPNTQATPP

[6] = molecular target: T2, ICAM1, endogenous in H929 multiple …; experiment: flow cytometry, H929 + NT Green siRNA; None 416
[7] = molecular target: T2, ICAM1, endogenous in H929 multiple …; experiment: flow cytometry, IgG1 on H929 cells
How it was run: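 5×10⁴ cells stained 30 min on ice with IgG1 (0.1 to 50 μg/mL) then secondary antibody, with DAPI or SYTOX AADvanced viability stain, and read by flow cytometry. Alexa Fluor 647-labeled IgG1s used for single-step staining; for competition, unlabeled IgG1 at 60 μg/mL blocked 30 min before labeled antibody at 2 μg/mL for another 30 min.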

Binder | Cells stained (%) [1] [%] | mAb binding (MFI) [2] | mAb binding (MFI) [3] | Cells stained (%) [4] [%] | Cells stained (%) [5] [%] | mAb binding (MFI) [6] | antibody-bound positive cells (%) [7] [%]
B1 | 97.1 | 7040 | 9430 | 94.8 | – | – | –
B2 | – | – | – | – | 99.8 | 51900 | 95.8
B3 | 93.8 | 5900 | 6390 | 85.3 | – | – | –
B4 | – | – | – | – | 2.62 | 483 | –
B5 | – | – | – | – | – | – | 2.7
